Data as given in publication PMC2063504, “Glycerate kinase of the hyperthermophilic archaeon Thermoproteus tenax: new insights into the phylogenetic distribution and physiological role of members of the three different glycerate kinase classes” (BMC Genomics, 2007).

Assays:
[1] = molecular target: T1, glycerate kinase (GarK; class II glycerate kinase, MOFRL family) (Thermoproteus tenax, UniProt G4RPE9); experiment: coupled assay, effector study; assay type: biochemical; details: product inhibitor, suggested competitive with ATP; 0.05 mM D-glycerate, 0.05 mM ATP (non-saturating), pH 7.5, 70 °C; mean of two measurements
T1 construct: full-length ORF, 398 residues, pET-24a (NdeI/EcoRI), E. coli BL21(DE3), no tag mentioned, conventional purification

[2] = system: Nc1ncnc2c1ncn2[C@@H]1O[C@H](COP(=O)(O)OP(=O)(O)OP(=O)(O)O)[C@@H](O)[C@H]1O; experiment: discontinuous coupled assay (enolase, pyruvate kinase, lactate dehydrogenase; NADH); assay type: biochemical, Thermoproteus tenax; details: D-glycerate, 20 mM Mg2+, pH 7.5, 70 °C
[3] = system: O=C(O)[C@H](O)CO; experiment: as above; assay type: biochemical, Thermoproteus tenax; details: 5 mM ATP, 20 mM Mg2+, pH 7.5, 70 °C, D-glycerate below 0.3 mM (substrate inhibition above)

% activity of control at 0.1 mM [1]	Molecule	Km [2]	kcat [2]	Km [3]	kcat [3]
39.1%	Nc1ncnc2c1ncn2[C@@H]1O[C@H](COP(=O)(O)OP(=O)(O)O)[C@@H](O)[C@H]1O [ADP]				
	glycerate kinase (GarK; class II glycerate kinase, MOFRL family) (Thermoproteus tenax Kra 1)	30 ± 10 µM	3.12 s⁻¹	20 ± 10 µM	3.57 s⁻¹
